The target in one test is human L-selectin (human) (UniProt P14151). Briefly: cell-based or functional assay.
A further test deals with CD34 (human) (UniProt P28906). Briefly: cell-based or functional assay.
Chain of UniProt P28906 (P28906 32-385): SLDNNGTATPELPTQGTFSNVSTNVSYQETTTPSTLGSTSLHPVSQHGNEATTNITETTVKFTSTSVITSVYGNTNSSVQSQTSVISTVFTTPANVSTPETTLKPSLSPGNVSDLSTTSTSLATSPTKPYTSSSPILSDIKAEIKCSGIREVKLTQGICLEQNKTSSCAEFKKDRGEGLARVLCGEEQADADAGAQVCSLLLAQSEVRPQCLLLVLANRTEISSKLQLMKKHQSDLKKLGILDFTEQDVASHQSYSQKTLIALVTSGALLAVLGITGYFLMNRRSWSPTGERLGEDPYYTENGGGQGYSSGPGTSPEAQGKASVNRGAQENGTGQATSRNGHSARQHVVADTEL

“anti-human L-selectin antibody (clone DREG56; Thermo Fisher)”: the reduction of the L-selectin enhanced amount of CD34+ transduction in the test with human L-selectin (human) amounted to 79%.
Consider “human L-selectin (from UniProt P14151 39-372) (ligand)”, for which the transduction of cytokine-stimulated CD34+ cells (% eGFP+ cells) with CD34 (human) is 2 fold.

The values are drawn from patent US20210139932A1.
